B1: ER membrane protein complex subunit 2 (Homo sapiens), Q15006 (parent)
chain: MAKVSELYDVTWEEMRDKMRKWREENSRNSEQIVEVGEELINEYASKLGDDIWIIYEQVMIAALDYGRDDLALFCLQELRRQFPGSHRVKRLTGMRFEAMERYDDAIQLYDRILQEDPTNTAARKRKIAIRKAQGKNVEAIRELNEYLEQFVGDQEAWHELAELYINEHDYAKAAFCLEELMMTNPHNHLYCQQYAEVKYTQGGLENLELSRKYFAQALKLNNRNMRALFGLYMSASHIASNPKASAKTKKDNMKYASWAASQINRAYQFAGRSKKETKYSLKAVEDMLETLQITQS
partner: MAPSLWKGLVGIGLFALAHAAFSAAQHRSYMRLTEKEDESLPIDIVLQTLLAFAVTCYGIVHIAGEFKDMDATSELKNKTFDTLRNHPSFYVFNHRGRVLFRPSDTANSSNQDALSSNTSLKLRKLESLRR
B2: ER membrane protein complex subunit 2 (Homo sapiens), Q15006 (parent)
chain: B1 chain
partner: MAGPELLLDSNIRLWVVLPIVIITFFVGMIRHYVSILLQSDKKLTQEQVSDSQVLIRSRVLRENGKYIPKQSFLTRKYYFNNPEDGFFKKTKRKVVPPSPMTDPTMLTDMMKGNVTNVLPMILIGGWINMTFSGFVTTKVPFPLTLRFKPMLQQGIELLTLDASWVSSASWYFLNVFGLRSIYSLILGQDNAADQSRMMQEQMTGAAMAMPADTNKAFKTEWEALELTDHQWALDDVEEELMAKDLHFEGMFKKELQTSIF

Variants of B1 are the subject of the first test. The conditions noted are these: with emc5_human MMGT1, Q8N4V1.
Regarding MAKVSELYDVTWEEMRDKMRKWREENSANSEQIVEVGEELINEYASKLGDDIWIIYEQVMIAALDYGRDDLALFCLQELRRQFPGSHRVKRLTGMRFEAMERYDDAIQLYDRILQEDPTNTAARKRKIAIRKAQGKNVEAIRELNEYLEQFVGDQEAWHELAELYINEHDYAKAAFCLEELMMTNPHNHLYCQQYAEVKYTQGGLENLELSRKYFAQALKLNNRNMRALFGLYMSASHIASNPKASAKTKKDNMKYASWAASQINRAYQFAGRSKKETKYSLKAVEDMLETLQITQS [R28A], the “effect of a mutation on the interaction” value is on record as “disrupting interaction strength”.
For the variant MAKVSELYDVTWEEMRDKMRKWREENSRNSEQIVEVGEELINEYASKLGDDIWIIYEQVMIAALDYGRDDLALFCLQELRRQFPGSHRVKRLTGMRFEAMERYDDAIQLYDRILQEDPTNTAARKRKIAIRKAQGKNVEAIRELNEYLEQFVGDQAAWHELAELYINEHDYAKAAFCLEELMMTNPHNHLYCQQYAEVKYTQGGLENLELSRKYFAQALKLNNRNMRALFGLYMSASHIASNPKASAKTKKDNMKYASWAASQINRAYQFAGRSKKETKYSLKAVEDMLETLQITQS [E156A], the “effect of a mutation on the interaction” value is reported as “disrupting interaction strength”.

In another test the parent is B2. The conditions noted are these: with emc3_human EMC3, Q9P0I2.
MAKVSELYDVTWEEMRDKMRKWREENSRNSEQIVEVGEELINEYASKLGDDIWIIYEQVMIAALDYGRDDLALFCLQELRRQFPGSHRVKRLTGMRFEAMERYDDAIQLYDRILQEDPTNTAARKRKIAIRKAQGKNVEAIRELNEYLEQFVGDQEAWHELAELYINEHDYAKAAFCLEELMMTNPHNHLYCQQYAEVKATQGGLENLELSRKYFAQALKLNNRNMRALFGLYMSASHIASNPKASAKTKKDNMKYASWAASQINRAYQFAGRSKKETKYSLKAVEDMLETLQITQS [Y200A]: the “effect of a mutation on the interaction” value is listed as “with no effect”.
Same read-out and setting: as for MAKVSELYDVTWEEMRDKMRKWREENSRNSEQIVEVGEELINEYASKLGDDIWIIYEQVMIAALDYGRDDLALFCLQELRRQFPGSHRVKRLTGMRFEAMERYDDAIQLYDRILQEDPTNTAARKRKIAIRKAQGKNVEAIRELNEYLEQFVGDQEAWHELAELYINEHDYAKAAFCLEELMMTNPHNHLYCQQYAEVKYTQGGLENLELSRKYFAQALKLNNRNMAALFGLYMSASHIASNPKASAKTKKDNMKYASWAASQINRAYQFAGRSKKETKYSLKAVEDMLETLQITQS [R227A], the entry is “disrupting interaction strength”.
Still for that read-out and setting: under MAKVSELYDVTWEEMRDKMRKWREENSRNSEQIVEVGEELINEYASKLGDDIWIIYEQVMIAALDYGRDDLALFCLQELRRQFPGSHRVKRLTGMRFEAMERYDDAIQLYDRILQEDPTNTAARKRKIAIRKAQGKNVEAIRELNEYLEQFVGDQEAWHELAELYINEHDYAKAAFCLEALMMTNPHNHLYCQQYAEVKYTQGGLENLELSRKYFAQALKLNNRNMRALFGLYMSASHIASNPKASAKTKKDNMKYASWAASQINRAYQFAGRSKKETKYSLKAVEDMLETLQITQS [E180A] stands “disrupting interaction strength”; under MAKVSELYDVTWEEMRDKMRKWREENSRNSEQIVEVGEELINEYASKLGDDIWIIYEQVMIAALDYGRDDLALFCLQELRRQFPGSHRVKRLTGMRFEAMERYDDAIQLYDRILQEDPTNTAARKRKIAIRKAQGKNVEAIRELNEYLEQFVGDQEAWHALAELYINEHDYAKAAFCLEELMMTNPHNHLYCQQYAEVKYTQGGLENLELSRKYFAQALKLNNRNMRALFGLYMSASHIASNPKASAKTKKDNMKYASWAASQINRAYQFAGRSKKETKYSLKAVEDMLETLQITQS [E160A], “with no effect”; under MAKVSELYDVTWEEMRDKMRKWREENSRNSEQIVEVGEELINEYASKLGDDIWIIYEQVMIAALDYGRDDLALFCLQELRRQFPGSHRVKRLTGMRFEAMERYDDAIQLYDRILQEDPTNTAARKRKIAIRKAQGKNVEAIRELNEYLEQFVGDQEAWHELAELYINEHDAAKAAFCLEELMMTNPHNHLYCQQYAEVKYTQGGLENLELSRKYFAQALKLNNRNMRALFGLYMSASHIASNPKASAKTKKDNMKYASWAASQINRAYQFAGRSKKETKYSLKAVEDMLETLQITQS [Y171A], “with no effect”.
With MAKVSELYDVTWEEMRDKMRKWREENSRNSEQIVEVGEELINEYASKLGDDIWIIYEQVMIAALDYGRDDLALFCLQELRRQFPGSHRVKRLTGMRFEAMERYDDAIQLYDRILQEDPTNTAARKRKIAIRKAQGKNVEAIRELNEYLEQFVGDQEAWHELAELYINEHDYAKAAFCLEELMMTNPHNHLYCQQYAEVKYTQGGLENLELSRKYFAQALKLNNRNMRALFGLYMSASHIASNPKASAKTKKDNMKYASAAASQINRAYQFAGRSKKETKYSLKAVEDMLETLQITQS [W259A], the “effect of a mutation on the interaction” value was “disrupting interaction strength”.
Take MAKVSELYDVTWEEMRDKMRKWREENSRNSEQIVEVGEELINEYASKLGDDIWIIYEQVMIAALDYGRDDLALFCLQELRRQFPGSHRVKRLTGMRFEAMERYDDAIQLYDRILQEDPTNTAARKRKIAIRKAQGKNVEAIRELNEYLEQFVGDQAAWHELAELYINEHDYAKAAFCLEELMMTNPHNHLYCQQYAEVKYTQGGLENLELSRKYFAQALKLNNRNMRALFGLYMSASHIASNPKASAKTKKDNMKYASWAASQINRAYQFAGRSKKETKYSLKAVEDMLETLQITQS [E156A]: the “effect of a mutation on the interaction” value is reported as “with no effect”.
Still for that read-out and setting: as for MAKVSELYDVTWEEMRDKMRKWREENSANSEQIVEVGEELINEYASKLGDDIWIIYEQVMIAALDYGRDDLALFCLQELRRQFPGSHRVKRLTGMRFEAMERYDDAIQLYDRILQEDPTNTAARKRKIAIRKAQGKNVEAIRELNEYLEQFVGDQEAWHELAELYINEHDYAKAAFCLEELMMTNPHNHLYCQQYAEVKYTQGGLENLELSRKYFAQALKLNNRNMRALFGLYMSASHIASNPKASAKTKKDNMKYASWAASQINRAYQFAGRSKKETKYSLKAVEDMLETLQITQS [R28A], the entry is “with no effect”.
